Laboratory results: the DeepSol protein solubility set

Experiment: soluble on expression in E. coli; label from the status in PepcDB or PDB records
For “MAHHHHHHMADQNPDLKVEEALKGADIKLLLIDFDGTLFVDKDIKVPSENIDAIKEAIEKGYMVSICTGRSKVGILSAFGEENLKKMNFYGMPGVYINGTIVYDQIGYTLLDETIETDVYAELISYLVEKNLVNQTIFHRGESNYVTEDNKYADFLQKMYSENRSIIIRHNEMLKYRTMNKLMIVLDPSESKTVIGNLKQKFKNKLTIFTTYNGHAEVTKLGHDKYTGINYLLKHYNISNDQVLVVGDAENDIAMLSNFKYSFAVANATDSAKSHAKCVLPVSHREGAVAYLLKKVFDLKK”, the “soluble on expression in E. coli” value was “soluble”. For “MTYCLGIVTQAGLIMAADSRTNAGIDYISTYQKLFDFSLPGDRTIVICCSGNLSITQAVLSQLRRDLAGHFDINLHSLPTMYDLARYLGQKVRQLQESDRDWLKQDGIDFYCNFLLGGQIRGGPIELYLVYGQGNCIHATPETPYLQIGETKYGKPILDRTISFDTSLDMAAKCALMSLDSTMRSNLSVGPPLNLARYERDSLVAPMLVQFPAGHEYLVEMRRRWEISLKDAFMRLPDIDWSRQLMRSLSPVSESVP”, the “soluble on expression in E. coli” value was “not soluble”. For “MPGRFELKPTLAKIWHAPDNFRIMEPLPPMHRRGIIIAAIVLVIGFLLPASETSDSPVVTREAQLDLQSQSQPPTEAQLQAQLVAPQNDPDQVAPVAPEPIQEGQPEEQNQPQTQPFQQDSGIGQQWRSYRVESGKTLAQLFRDHGLPPTDVYAMAQVEGAGKPLSNLKNGQMIKIRQNASGVVTGLTIDGDNGQQVLFTRQPDGSFIRAQ”, the “soluble on expression in E. coli” value was “not soluble”. For “MAHHHHHHMASADVVSTWVCPICMVSNETQGEFTKDTLPTPICINCGVPADYELTKSSINCSNAIDPNANPRNQFG”, the “soluble on expression in E. coli” value was “soluble”. For “MGFSFLLATVQKERMKRRSRTRSRSRRRAKQDPKTWVARYIPQDLLIEILTRLPPKSVMRFKCVSKFWSSLLSSRYFCNRFLIVPSQPQPSLYMCLLDRYNYSKSLILSSAPSTSPYSFVFDQDLTIRKMGGFFLRILRGFIFFTRNLKARIYNPTTRQLVILPTIKESDIIAGPPYNILYFICHDPVNDRYKLLCTVSYASDNDLQNLKSELWIFVLEAGGSWKRVANEFPHHVPSHLDLNMNGVLYFLAWTDPHTCMLVSFDVRSEEFNTMQVPRNAGDTLPRQEKGVVNRVW”, the “soluble on expression in E. coli” value was “not soluble”. With “MHEPMKTLKNIHAEIRICQKFPKSTVQKRFSEFEELIKAASKNARNWKPISSVELFQGDSSLNELFEKLVIGTCELRDGELFENVNDLTINPSNIHVYKLHKDGPLSQNIGDDDGDESIIGSQLWQLPCVEFDSIWENLIYDSNLKNEVMSYVAALARLSEKHVNTKIINVNRLILLTGPPGTGKTSLCKGLAQHLSIRMNDKYSKSVMLEINSHSLFSKWFSESGKLVQKMFDQIDELAEDEKCMVFVLIDEVESLGMCRESSSSRSEPSDAIRAVNALLTQIDRIRRRDNVLILCTSNLESTLDKALVDRADIVKNVGQPSDFARYSMLKSSIMELARIGVVIDNEVHTDYWPQDICDTKAPRNEFTEILFKIAQEARGLSGRAISMLPTLVYSKSPEETITLPNCMNLFLEAVKERLSRNN” the “soluble on expression in E. coli” value was “not soluble”. For “MKAVGLVVEYNPFHNGHLYHAQTAKLQTGCDTAVAVMSGHFLQRGEPAVVSKWARTKMALQSGVDLVIELPYLYAVQKADIFARGSVSILNELECEALFFGSENGDIKPFLETAQLIDEHKHILNDRIKEELKKGASYPAAAAIAFSSILHTESALDLSKPNNILGYQYVTSILTGGYPMKPYTTARISSDYHDADLPEGENHIASATSIRKAMIGQNLEACLRFLPAASARELAAYRKSFGLWHTPESYFSYLKYSLSTVTARELQQVYEVEEGLEHRIIRSIRKSSSYQEFMELLKTKRYTWTRLQRMNTHILTRTKKQDMQKLLDNDKAPYIRLLGMTKKGQAYLSEKKKALSVPLVSKLSSFSHPALDLDVKASRIYSLPIEEPLRTEFDLQEYG”, the “soluble on expression in E. coli” value was “not soluble”. For “MAHHHHHHMCCTFWGLRLDNTCNNMKSVDIIKCDMCFFSHDGLFLIYTIINKIFVIQVKNLEMYRIYVESYKVDDIKLSSDNIHFLTLIKNKGCVCIYSFYKNNLINKICDYFQTYDHSFFLSKHNNIGIVKYEKKCLTIYNMNNPEKCLINIENIKYQNKGYCSNYINTIFACLVENKKDVNILLLSLFNYTIIKIIKCINFFPNDILFSKSDHIIAYSNKNRSLHIYSIDGDLLHVYKYAEDLGGNTKNVKKKKKKKKKSKFCAWKILKKSSFSFWITHCK”, the “soluble on expression in E. coli” value was “not soluble”. In the case of “MRLNKRLPAALSGLLLSAALLAGCSTSGTAETTTTTVSSAAASTTTSTSSASSSSSSSSSSSSSDSSTTAETISNTAEAAQAFLSTLSTEEQDAVLYDYDAEEKSTGWSNFPVTFVQRSGVNLTDLTEEQQAAALNVLKNLLNDDAYQMIEDIMASDQYLNDESNTTEDSLGQYYIAFFGDPSSDSDWSIQFGGHHIGINTTFSDGAITFAPTHLGTQPSEWTNEDGETVAALSNMYETAFAFYDSLAEEQQAQLYQGEELDSMVCAPGSTCDYPTGTGLKGSDLTDEQKELLIDVIANWVGLADEETTETELDAIRETLDDTYINWSGATEYDTSTGDGIYFQISGPKVYIEFANQQGSAGADIDGVITAGWGHIHTIYRDPTNDYANSVTQEAASGMMGGGPGGNGGEMPSGDMPTGEMPSGAPSNLEHHHHHH”, the “soluble on expression in E. coli” value is reported as “not soluble”. With “GGCYERIFAVPQQERTSLRVVTALAHGCDLVITRAGPTPRTYTPLQTQRFRNSLRSDAGCVIMMGDHVVSPAARLASAVVGYHGIGKGTGRIKAVEITVTGIAKGFYRTSRVIVGKHIAPAAEKTTMKVV” the “soluble on expression in E. coli” value was “not soluble”. In the case of “SSFQGPLDATVVVNLQSPTLEEKNEFPEDLRTELMQTLGSYGTIVLVRINQGQMLVTFADSHSALSVLDVDGMKVKGRAVKI”, the “soluble on expression in E. coli” value is reported as “soluble”. In the case of “MGHHHHHHSHMEKNLLLTIESLYKNLRKANKAVDFTTVKFLLQDSRSLLHAFSTRSNYDGILPQTFAQVNNLLQTFAEVKTKLKPNSSENTVTKKQEGTSLKNSHNQEITVFSSSHLPQPSRHQEIWSILESVWITIYQNSTDVFQRLGSNSALTTSNIASFEEAFICLQKLMAAVRDILEGIQRILAPNSNYQDVETLYNFLIKYEVNKNVKFTAQEIYDCVSQTEYREKLTIGCRQLVEMEYTMQQCNASVYMEAKNRGWCEDMLNYRI”, the “soluble on expression in E. coli” value is reported as “not soluble”. For “MGSDKIHHHHHHMRLVLEEPFKRLWNGRDPFEAVEALQGKVYRELEGRRTLRTEVDGRGYFVKIHRGIGWGEIAKNLLTAKLPVLGARQEWQAIRRLHEAGVATMTAVAYGERGSDPARQHSFIVTEELAPTVDLEVFSQDWRERPPPPRLKRALVEAVARMVGDMHRAGVNHRDCYICHFLLHTDKPVSADDFRLSVIDLHRAQTRDATPKRWRNKDLAALYFSALDIGLTRRDKLRFLRTYFRRPLREILRDEAGLLAWMERKAEKLYERKQRYGDLL”, the “soluble on expression in E. coli” value was “not soluble”. In the case of “MGSDKIHHHHHHMVLPSMNKSVEAISNNHLQQPNKFPLINGLADVRDYYVANCLLFKLNKGSLRIENEFGEFIERSAPCLFLLEKDQTITLSMSEIEGHIDFSSLEVSYDLMQKFYKVFYSTRNYNDRELSLKTKPKYFFHADLLPGMSDTFDSILHGVACPRVCSNVSIDDHDYSYFSLMYLISAFVRKPGGFDFLERAIKITTKEKVYNIIISDLTRKWSQAEVAGKLFMSVSSLKRKLAAEEVSFSKIYLDARMNQAIKLLRMGAGNISQVATMCGYDTPSYFIAIFKRHFKITPLSFMRTMNH”, the “soluble on expression in E. coli” value is reported as “not soluble”. For “MLLDSIFFRTHPDWIVCCRFLQGVGTDREKREENGRKKTVKITIFSDCMLWANPISLCIRHRAVFNNRNLRMDFSSYTILCLNRLDAWIPAFGIPK”, the “soluble on expression in E. coli” value was “not soluble”. With “MGSDKIHHHHHHLEELDQMRAVFGTRPWREPTDTPAVISVSNFKGGVGKSTVALHLAQHFAIHGYRVLFIDCDSQASSTMMFGYRPDVDLTEDDTLYGHFHNPELLGVRSIIRKTHFFGLDLIPANLKLYNLEYEIAGYLAQNQNFDIIDLIAEAIDTVVDDYDVVVMDPPPALGMVSMAVLQAANAMVIPVPPSVIDFASTVSFIDMARTTMKQLEQIAGRVKPAYNFIRLVGSRVDESKSMHREILSMMRQVFGGSMATSVLKTSAEIDNASSRMKTVFELDRPVTSHEVHNRCMKHLSDVCREIETDVLRTWASRAGEAV” the “soluble on expression in E. coli” value was “not soluble”. With “MQRMNFSSLIETFAVDFQLVLPSVEGAGKYIHGEWFPTNEEPKTVSGAIIPYDNRTIYQSGGTLTSSDRQLAYVGSIPLGSKIIDMGKEYKVESEEPYAEHYADVNLYRLKAVTNNAAN” the “soluble on expression in E. coli” value was “not soluble”. With “MAHHHHHHMKLFLTVVERHNSTNSSDVTPTDDVALFDPGVWSRTATSEMARRNVSASYVAQQVYRHAALTQLAKVALSSAVCFRYGPRPPPHLDSFLFHKRCRPTGHGRCGTPPAAAAPPVCAPSPLISSSSSSFSVNMAATSPGTGQQRSTAAGASDSATEYDSLLALWLRELLSGTDSSVTVTALLLFVEGTAIDMATGSKVHTPLNIGSGTARQLRTHEDAMAFLHACESTLHHSAAEFPRCPYHVCVAVLVGTHGGSHGKNPVIFLDVAAAAPESAGAHQEVRLREQVALFGRQLGADATTATPHARQRTRKAEDEQWLSLLQSCQLSRASLVGLVYVACEAGHDPFGHSRVEGTDCDPFTLASVLRQRALLEAVNNGVLHPQLRKLSRARNRATARAVKLPASGATTRSRAPASPLKGRPSRGRQRPQQHSPKLPYLARDSVPPRRTQEHSIVFYGVSRCGRSADLLARIEEEEHHARVALSSAEQRAWNLAELRWILRAHPPGKSIDAMLRRFAHNVDGVSRPEQQHPHSVPPRFLPPPLNVAQLATAISRPSTTATRRSSFASATRTPESTSPGGTVRTRVTASMLPTSPSRLALTSTFFTRRITTPLFFREAGSPPQNQDDPRAHSASSHVAVRGHNATELERRRLKSGATFSLATDSPNARACTTARRLSAIETALLARAHSSSQRSLPSPSPCTGEVERLYPLVRAFHVEMCEQDALMAEELMMRSCIEHKEKNCRKTLSVARAESVRRLSVWWPSETGTQPQREPQVPDSPRWRPAKPLPLRIFFQQ” the “soluble on expression in E. coli” value was “not soluble”. For “GMTTKDISRPVCILGLGLIGGSLLRDLHAANHSVFGYNRSRSGAKSAVDEGFDVSADLEATLQRAAAEDALIVLAVPMTAIDSLLDAVHTHAPNNGFTDVVSVKTAVYDAVKARNMQHRYVGSHPMAGTANSGWSASMDGLFKRAVWVVTFDQLFDGTDINSTWISIWKDVVQMALAVGAEVVPSRVGPHDAAAARVSHLTHILAETLAIVGDNGGALSLSLAAGSYRDSTRVAGTDPGLVRAMCESNAGPLVKALDEALAILHEAREGLTAEQPNIEQLADNGYRSRIRYEARSGQRRAKESVSPTITSSRPVLRLHPGTPNWEKQLIHAETLGARIEVF”, the “soluble on expression in E. coli” value was “soluble”. For “MNPIAVTLLTGFLGAGKTTLLRHILNEQHGYKIAVIENEFGEVSVDDQLIGDRATQIKTLTNGCICCSRSNELEDALLDLLDNLDKGNIQFDRLVIECTGMADPGPIIQTFFSHEVLCQRYLLDGVIALVDAVHADEQMNQFTIAQSQVGYADRILLTKTDVAGEAEKLHERLARINARAPVYTVTHGDIDLGLLFNTNGFMLEENVVSTKPRFHFIADKQNDISSIVVELDYPVDISEVSRVMENLLLESADKLLRYKGMLWIDGEPNRLLFQGVQRLYSADWDRPWGDEKPHSTMVFIGIQLPEEEIRAAFAGLRK”, the “soluble on expression in E. coli” value was “soluble”. With “MGSDKIHHHHHHMQLVFDFPVNPKYSLDNFVICSGNETAYRFVRRLTDDEGAENLLYLHGPSGSGKTHLLMAIGAHFSARAGLSSVPCISFKDVDEVYGGEYPAEAVSKLAERFRNAPALLVDDLHLIPDQQAVRVELWQLFNDFYQAGRPIAITGLYPPKELPTIDDHLISRLLWGLVARVDISDDDSRRLIMKKLADDRQIVLPADVIDYLLLHVRRDVPSLIEALDAISRYALAAKRKVSVRLAREALAFHS” the “soluble on expression in E. coli” value was “not soluble”.
